From the supplement of paper PMC10567573

B1: SAT2 (parent)
chain: GYGIYYFIYSTWKGRTIYLEDIYV
B2: RHOBTB2 (parent)
chain: LYTGELDENERDLMHIAHIAELLE

Variants of: B1
Experiment: protein stability index of a GFP-peptide fusion (GPS, HEK-293T) (PSI 1-6); higher = more stable
Conditions: c terminus: a fixed tail appended
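Also: lentivirally expressed fusions sorted by FACS into six bins by GFP to DsRed ratio, PSI derived from sequencing read proportions per bin multiplied by bin number.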

Protein stability index, by site and new letter:
I4: G 1.88, A 3.19, H 2.53, N 3.27, M 3.54, K 2.7, D 2.92, W 2.71, C 3.26, V 1.71
G3: D 2.8, I 1.59, F 4.2, C 2.12, Y 2.19, K 2.62, H 2.85, P 2.7, S 3.29, E 2.58, R 2.96
I8: H 2.93, F 3.4, A 1.76, E 3.68, D 3.24, Q 1.27, L 2.2, C 1.7
Y6: L 1.83, A 2.88, E 2.64, Q 3.44, C 2.94, R 3.12, F 3.09
Y5: T 2.53, R 2.39, C 2.85, K 2.61, I 2.59, G 3.41, D 2.62, W 2.09, H 2.42, L 2.15
F7: E 2.37, P 3.4, K 3.88, A 2, Q 5.82, S 2.8, N 3.37, R 2.72, V 3.39, G 3.36, D 3.03, W 2.65, L 2.92
G1: Y 3.1, H 2.72, E 2.96, R 2.21, C 1.66, L 3.6, M 3.54, S 2.41, F 2.13, I 1.2
Y2: P 1.91, S 3.01, C 2.61, Q 4.95, I 3.75, V 2.26, M 2.92, W 2.38, H 3.91, R 2.58, N 3.27, F 1.06, D 2.06

Variants of: B2
Experiment: as above
Conditions: c terminus: a fixed tail appended

Protein stability index of substitutions, site by site:
D12: N 3.12, H 3.13, Y 1.66, I 3.03, T 2.43, F 2.78, S 2.56, C 2.53, P 2.43, K 3.02, V 2.96, Q 2.4, L 3.07, A 2.01, M 2.95, E 2.47, W 2.49, G 2.74
E24: A 3.44, V 1.97, H 2.21, R 2.11, M 2.17, Q 2.38, L 2.18, C 2.04, W 1.91, D 2.94, I 2, S 2.22, T 2.3, F 1.79, Y 2.04, P 3.33, N 2.42, K 2.12, G 2.85
M14: F 2.54, W 1.82, A 2.39, H 3.1, I 2.84, Y 2.01, V 2.16, L 2.58, D 3.41, K 2.89, Q 2.39, R 2.36, P 3.48, G 3.36, T 3.04, S 3.8, C 2.45, N 3.52
A20: Y 2.53, M 2.01, D 3.34, G 3.3, T 2.76, E 3.85, F 1.97, I 2.14, C 1.31, H 3.54, V 1.93, R 3.22, P 3.79, K 2.99, S 3.08, Q 3.72, W 2.37, L 1.61, N 3.74
L22: W 2.52, S 3.66, V 2.72, A 2.96, P 4.75, E 4.08, M 2.18, N 3.5, D 4.26, I 2.56, F 3.41, T 3, H 3.76, K 3.67, Y 3.03, R 3.62, C 2.79, Q 3.74, G 3.6
E21: F 1.74, W 2.1, K 2.07, I 1.77, G 1.92, V 1.04, R 1.85, D 2.77, A 1.72, Y 1.76, L 1.92, Q 2.32, P 3.3, H 1.8, T 1.75, N 2.48, C 2.37, S 1.7, M 2.12
I19: M 2.52, C 3.3, H 3.62, V 3.1, K 4.3, Q 3.37, E 4.85, Y 3.56, T 3.79, S 3.26, N 4.47, A 3.38, G 4.45, R 4.17, W 2.28, L 2.31, F 2.67, P 4.81, D 4.85
L23: I 2.66, D 4.28, E 5.05, Q 4.41, C 3.58, S 4.25, T 3.99, F 2.41, R 4.05, Y 3.31, W 2.55, K 3.93, H 3.97, G 4.05, N 4.01, A 4.33, V 2.62, M 3.3, P 4.28
H18: W 2.11, C 2.41, F 1.72, Y 1.59, Q 1.82, V 2.05, K 3.54, T 1.95, P 2.88, N 3.47, S 3.03, A 1.65, M 2.71, E 3.32, R 2.38, G 3.76, I 2.65, L 1.23, D 2.87
R11: T 2.14, Y 2.42, S 2.5, V 2.04, W 2.04, Q 1.96, P 2.67
A17: G 2.77, W 1.87, F 2.38, V 1.66, H 3.58, K 2.72, P 3.85, T 1.82, L 1.45, E 2.17, C 1.77, N 2.92, S 3.02, R 2.7, D 3.28, M 1.41, Y 1.93, I 2.1, Q 2.95
H15: V 1.62, I 1.93, T 1.53, K 2.21, N 2.63, S 2.54, C 2.13, L 1.5, D 3.36, Y 1.67, E 2.76, W 2.47, F 2.46, P 3.23, G 2.78, M 1.86, Q 2.4, R 2.42, A 1.74
L13: H 3.58, V 3.22, C 3.45, Y 2.59, W 2.65, D 3.12, T 3.34, I 2.38, S 3.12, M 2.92, Q 3.29, E 3.44, R 3.06, N 3.28, F 3.13, P 4.82, K 3.1, A 3.08, G 3.74
I16: H 3.76, R 4.43, K 4.05, Q 3.87, G 4.06, P 4.15, A 4.07, L 2.09, S 3.9, Y 2.93, M 2.51, W 3.16, C 3.77, E 4.85, D 4.12, N 3.54, F 2.71, V 2.76, T 3.62
